# Laboratory results published in patent US12295987B2, “Method of using a GIP/GLP1 co-agonist for diabetes” (Eli Lilly and Company, priority 2018, dated 2025).
# Target: T1, human gastric inhibitory peptide receptor (hGIPR) (Homo sapiens, UniProt P48546)
# T1 construct: expressed in transfected cells; host or cells: HEK293
# T1 sequence (P48546 22-466): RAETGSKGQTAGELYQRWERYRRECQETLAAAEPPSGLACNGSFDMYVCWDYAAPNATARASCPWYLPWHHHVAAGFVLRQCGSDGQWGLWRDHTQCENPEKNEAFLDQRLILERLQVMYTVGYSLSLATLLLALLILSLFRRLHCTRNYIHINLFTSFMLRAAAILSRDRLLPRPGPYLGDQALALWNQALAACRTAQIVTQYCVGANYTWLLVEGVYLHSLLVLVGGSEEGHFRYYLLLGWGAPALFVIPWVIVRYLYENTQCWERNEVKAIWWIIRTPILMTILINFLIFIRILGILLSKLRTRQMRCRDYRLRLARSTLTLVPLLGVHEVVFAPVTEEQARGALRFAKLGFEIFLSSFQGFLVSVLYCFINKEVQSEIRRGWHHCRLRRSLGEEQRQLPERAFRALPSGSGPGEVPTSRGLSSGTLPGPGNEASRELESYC
# Experiment: cAMP pharmacological functional assay in presence of 0.1% casein, hGIPR
# Assay type: cell-based
# Conditions: ratio of hGIPR to hGLP1R cAMP EC50 ratios
row,Substance,[hGIPR/hGLP1R] EC50 Ratio
1,"Y-Aib-EGT-αMeF(2F)-TSDYSI-αMeL-LDEK((2-[2-(2-Amino-ethoxy)-ethoxy]-acetyl)2-CO—(CH2)16—CO2H)AQ-Aib-EFI-(D-Glu)-YLIEGGPSSGAPPPS-NH2 (YXEGTXTSDYSIXLDEKAQXEFIXYLIEGGPSSGAPPPS; Aib, αMeF(2F), αMeL, D-Glu; lipidated K; amide; (2)..(2) Xaa at position 2 is Aib; (6)..(6) Xaa at position 6 is alpha-methyl-Phe(2F); (13)..(13) Xaa at position 13 is alpha-methyl-Leu; MOD_RES (17)..(17) Lys at position 17 is chemically modified by conjugation of the epsilon-amino group of the Lys side chain with (2-[2-(2-amino-ethoxy)-ethoxy]-acetyl)2-CO-(CH2)16-CO2H; (20)..(20) Xaa at position 20 is Aib; (24)..(24) Xaa at position 24 is D-Gl) [Peptide 214]",3.98
2,"Y-Aib-EGT-αMeF(2F)-TSDYSI-αMeL-LDEK((2-[2-(2-Amino-ethoxy)-ethoxy]-acetyl)2-CO—(CH2)18—CO2H)AQ-Aib-EFI-(D-Glu)-YLIEGGPSSGAPPPS-NH2 (YXEGTXTSDYSIXLDEKAQXEFIXYLIEGGPSSGAPPPS; Aib, αMeF(2F), αMeL, D-Glu; lipidated K; amide; (2)..(2) Xaa at position 2 is Aib; (6)..(6) Xaa at position 6 is alpha-methyl-Phe(2F); (13)..(13) Xaa at position 13 is alpha-methyl-Leu; MOD_RES (17)..(17) Lys at position 17 is chemically modified by conjugation of the epsilon-amino group of the Lys side chain with (2-[2-(2-amino-ethoxy)-ethoxy]-acetyl)2-CO-(CH2)18-CO2H; (20)..(20) Xaa at position 20 is Aib; (24)..(24) Xaa at position 24 is D-Gl) [Peptide 215]",4.34
3,"Y-Aib-EGT-αMeF(2F)-TSDYSI-αMeL-LDHK((2-[2-(2-Amino-ethoxy)-ethoxy]-acetyl)2-(γGlu)-CO—(CH2)18—CO2H)AQ-Aib-EFI-(D-Glu)-YLIEGGPSSGAPPPS-NH2 (YXEGTXTSDYSIXLDHKAQXEFIXYLIEGGPSSGAPPPS; Aib, αMe residues, lipidated Lys, D-Glu, C-terminal amide; (2)..(2) Xaa at position 2 is Aib; (6)..(6) Xaa at position 6 is alpha-methyl-Phe(2F); (13)..(13) Xaa at position 13 is alpha-methyl-Leu; MOD_RES (17)..(17) Lys at position 17 is chemically modified by conjugation of the epsilon-amino group of the Lys side chain with (2-[2-(2-amino-ethoxy)-ethoxy]-acetyl)2-(gamma-Glu)-CO-(CH2)18- CO2H; (20)..(20) Xaa at position 20 is Aib; (24)..(24) Xaa at positi) [Peptide 230]",5.53
4,"Y-Aib-EGT-αMeF(2F)-TSDYSI-αMeL-LDKK((2-[2-(2-Amino-ethoxy)-ethoxy]-acetyl)2-(γGlu)-CO—(CH2)18—CO2H)AQ-Aib-EFI-(D-Glu)-YLIEGGPSSGAPPPS-NH2 (YXEGTXTSDYSIXLDKKAQXEFIXYLIEGGPSSGAPPPS; Aib, αMeF(2F), αMeL, D-Glu; lipidated K; amide; (2)..(2) Xaa at position 2 is Aib; (6)..(6) Xaa at position 6 is alpha-methyl-Phe(2F); (13)..(13) Xaa at position 13 is alpha-methyl-Leu; MOD_RES (17)..(17) Lys at position 17 is chemically modified by conjugation of the epsilon-amino group of the Lys side chain with (2-[2-(2-amino-ethoxy)-ethoxy]-acetyl)2-(gamma-Glu)-CO-(CH2)18- CO2H; (20)..(20) Xaa at position 20 is Aib; (24)..(24) Xaa at positi) [Peptide 212]",5.41
